From patent US20210380978
pKd: −log10 of the molar value.

Test system: HNRNPH1 isoform A (Homo sapiens)
Test: MST
Conditions: 50 mM Tris pH 8.0, 300 mM KCl, 0.02% NP-40, 10% glycerol, 0.5 mg/ml heparin, 22 C; 20 nM RNA

## INCA1 major eCLIP peak 50-nt RNA oligo
  pKd: 6.12
